{"source": "patent US20170184612A1", "about": "“USE OF LEUKOCYTES AND NOVEL BIOMARKERS IN THE DIAGNOSIS, CONFIRMATION, AND TREATMENT OF A NEUROLOGICAL DISORDER” (The Trustees of Columbia University in the City of New York, priority 2014, published 2017)", "molecular_target": "SIINFEKL-MHC-I (SIINFEKL peptide bound to MHC-I H-2Kb) (chicken; mouse)", "test": "cell-based or functional assay"}
{"sequence": "T cell receptor of OT-1 CD8+ T cells (TCR)", "values": [{"measurement": "neuronal death (TH+ neurons killed by CTLs)", "result": 55, "unit": "%"}]}
